# Results: IntAct's records for PubMed 22579248
# B1: Partitioning defective 3 homolog (Homo sapiens), Q8TEW0 (parent)
# chain: MKVTVCFGRTRVVVPCGDGHMKVFSLIQQAVTRYRKAIAKDPNYWIQVHRLEHGDGGILDLDDILCDVADDKDRLVAVFDEQDPHHGGDGTSASSTGTQSPEIFGSELGTNNVSAFQPYQATSEIEVTPSVLRANMPLHVRRSSDPALIGLSTSVSDSNFSSEEPSRKNPTRWSTTAGFLKQNTAGSPKTCDRKKDENYRSLPRDTSNWSNQFQRDNARSSLSASHPMVGKWLEKQEQDEDGTEEDNSRVEPVGHADTGLEHIPNFSLDDMVKLVEVPNDGGPLGIHVVPFSARGGRTLGLLVKRLEKGGKAEHENLFRENDCIVRINDGDLRNRRFEQAQHMFRQAMRTPIIWFHVVPAANKEQYEQLSQSEKNNYYSSRFSPDSQYIDNRSVNSAGLHTVQRAPRLNHPPEQIDSHSRLPHSAHPSGKPPSAPASAPQNVFSTTVSSGYNTKKIGKRLNIQLKKGTEGLGFSITSRDVTIGGSAPIYVKNILPRGAAIQDGRLKAGDRLIEVNGVDLVGKSQEEVVSLLRSTKMEGTVSLLVFRQEDAFHPRELNAEPSQMQIPKETKAEDEDIVLTPDGTREFLTFEVPLNDSGSAGLGVSVKGNRSKENHADLGIFVKSIINGGAASKDGRLRVNDQLIAVNGESLLGKTNQDAMETLRRSMSTEGNKRGMIQLIVARRISKCNELKSPGSPPGPELPIETALDDRERRISHSLYSGIEGLDESPSRNAALSRIMGESGKYQLSPTVNMPQDDTVIIEDDRLPVLPPHLSDQSSSSSHDDVGFVTADAGTWAKAAISDSADCSLSPDVDPVLAFQREGFGRQSMSEKRTKQFSDASQLDFVKTRKSKSMDLGIADETKLNTVDDQKAGSPSRDVGPSLGLKKSSSLESLQTAVAEVTLNGDIPFHRPRPRIIRGRGCNESFRAAIDKSYDKPAVDDDDEGMETLEEDTEESSRSGRESVSTASDQPSHSLERQMNGNQEKGDKTDRKKDKTGKEKKKDRDKEKDKMKAKKGMLKGLGDMFRFGKHRKDDKIEKTGKIKIQESFTSEEERIRMKQEQERIQAKTREFRERQARERDYAEIQDFHRTFGCDDELMYGGVSSYEGSMALNARPQSPREGHMMDALYAQVKKPRNSKPSPVDSNRSTPSNHDRIQRLRQEFQQAKQDEDVEDRRRTYSFEQPWPNARPATQSGRHSVSVEVQMQRQRQEERESSQQAQRQYSSLPRQSRKNASSVSQDSWEQNYSPGEGFQSAKENPRYSSYQGSRNGYLGGHGFNARVMLETQELLRQEQRRKEQQMKKQPPSEGPSNYDSYKKVQDPSYAPPKGPFRQDVPPSPSQVARLNRLQTPEKGRPFYS
# partner: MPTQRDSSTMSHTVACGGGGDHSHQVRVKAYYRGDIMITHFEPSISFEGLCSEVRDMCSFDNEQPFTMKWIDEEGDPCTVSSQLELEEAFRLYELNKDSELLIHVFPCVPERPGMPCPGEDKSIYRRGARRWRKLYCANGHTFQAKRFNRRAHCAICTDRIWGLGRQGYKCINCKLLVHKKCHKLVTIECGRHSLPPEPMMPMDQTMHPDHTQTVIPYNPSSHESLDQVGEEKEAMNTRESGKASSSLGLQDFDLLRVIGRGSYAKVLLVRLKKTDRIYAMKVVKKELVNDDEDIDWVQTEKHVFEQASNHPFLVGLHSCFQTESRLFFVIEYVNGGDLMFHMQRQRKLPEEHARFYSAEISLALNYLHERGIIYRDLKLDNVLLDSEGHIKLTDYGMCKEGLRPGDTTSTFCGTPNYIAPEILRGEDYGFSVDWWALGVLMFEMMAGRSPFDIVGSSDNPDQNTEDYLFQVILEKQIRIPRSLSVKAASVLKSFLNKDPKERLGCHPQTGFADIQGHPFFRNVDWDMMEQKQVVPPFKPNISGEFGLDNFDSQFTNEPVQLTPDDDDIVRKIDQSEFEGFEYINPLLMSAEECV
# B2: Protein kinase C iota type (Mus musculus), Q62074 (parent)
# chain: B1 partner
# Variants of: B1
# Details: with kpci_mouse Prkci
row,Variant,effect of a mutation on the interaction
1,S827E;S829E,disrupting interaction strength
2,R825A,disrupting interaction strength
3,S829E,disrupting interaction strength
4,R820A,disrupting interaction strength
5,K831A,disrupting interaction strength
6,S827E,disrupting interaction strength
7,S827A,decreasing interaction strength
8,F823K,decreasing interaction strength

# Now from value to variant:
row,effect of a mutation on the interaction,Variant
1,disrupting interaction strength,F818A
2,disrupting interaction strength,S827A;S829A
3,disrupting interaction strength,F823A
4,disrupting interaction strength,R832A

# Variants of: B2
# Details: with pard3_human PARD3, Q8TEW0
row,effect of a mutation on the interaction,Variant
1,increasing interaction strength,Y125A;R126A;R127A

# Variants of: B2
# Details: with pard3_human PARD3, Q8TEW0
# Remark: another data set of the same source
row,effect of a mutation on the interaction,Variant
1,decreasing interaction strength,N417D
2,decreasing interaction strength,D291K;D292L;E293Q;D294K
